The values below come from patent CN118206654A (BEILAI PHARMACEUTICAL CO LTD, dated 2024).

Broadly, the EC50 is the concentration giving half of the maximal effect.

In assay [1] the target is IL-17RA and IL-17RC co-expressed on 293F-IL-17RA-IL-17Rc-ACT1-NFκB-Luc cells (UniProt Q96F46). Put plainly: flow cytometry; IL17A-His on 293F-IL-17RA-IL-17Rc-ACT1-NFκB-Luc cells, APC anti-His.
In another assay the target is T1, Biotin-IL-17A-His (human, UniProt Q16552 24-155, limits assumed, biotin (site not stated)).
T1 construct: also called 人IL-17A蛋白 (biotinylated)
T1 sequence: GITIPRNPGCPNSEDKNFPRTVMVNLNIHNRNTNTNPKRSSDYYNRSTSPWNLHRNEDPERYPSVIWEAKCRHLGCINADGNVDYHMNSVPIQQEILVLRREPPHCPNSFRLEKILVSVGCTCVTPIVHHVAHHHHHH
Put plainly: ELISA; antibody coated at 2 ug/mL, Biotin-IL-17A-His titrated from 10 ug/mL (5-fold, 7 points), HRP-Streptavidin; the concentration is that of IL-17A. In general terms: An ELISA detects its analyte on a solid surface through an enzyme-linked reagent.

Consider “Human IL-17A重组蛋白 (C-terminal 6×His) (from UniProt Q16552 24-155) (ligand)”, for which, in assay [1], the 阳性率 is more than 90%.

B1: 阳性对照抗体Ixekizumab (antibody, human IgG4 S228P, kappa, V domains shown)
VH: QVQLVQSGAEVKKPGSSVKVSCKASGYSFTDYHIHWVRQAPGQGLEWMGVINPMYGTTDYNQRFKGRVTITADESTSTAYMELSSLRSEDTAVYYCARYDYFTGTGVYWGQGTLVTVSS
VL: DIVMTQTPLSLSVTPGQPASISCRSSRSLVHSRGNTYLHWYLQKPGQSPQLLIYKVSNRFIGVPDRFSGSGSGTDFTLKISRVEAEDVGVYYCSQSTHLPFTFGQGTKLEIKR
notes: also called 阳性抗体
B1: in the assay with Biotin-IL-17A-His, the midpoint of the response, the EC50, lay at 10.1 µg/mL.
